From publication PMC4225172

Key:
[1] = target: BoLA-1*02301 (D18.4) heavy chain folded with recombinant human β2m (cattle (Holstein) | human) (UniProt P61769); assay: AlphaScreen or HTRF
[2] = target: BoLA-3*00201 (JSP.1) heavy chain folded with recombinant human β2m (cattle (Holstein) | human) (UniProt P61769); assay: AlphaScreen or HTRF
[3] = target: BoLA-2*01201 (T2A) heavy chain folded with recombinant human β2m (cattle (Holstein) | human) (UniProt P61769); assay: AlphaScreen or HTRF
[4] = target: BoLA-2*01201 (T2A) heavy chain folded with 125I-radiolabeled bovine met-β2m (cattle (Holstein) | bovine) (UniProt P01888); assay: scintillation proximity assay
[5] = target: BoLA-T2C heavy chain folded with recombinant human β2m (cattle (Bos taurus×Bos indicus) | human) (UniProt P61769); assay: AlphaScreen or HTRF
[6] = target: BoLA-3*00201 (JSP.1) heavy chain folded with 125I-radiolabeled bovine met-β2m (cattle (Holstein) | bovine) (UniProt P01888); assay: scintillation proximity assay
[7] = target: BoLA-3*00101 (AW10) heavy chain folded with 125I-radiolabeled bovine met-β2m (cattle (Boran) | bovine) (UniProt P01888); assay: scintillation proximity assay
[8] = target: BoLA-1*02301 (D18.4) heavy chain folded with 125I-radiolabeled bovine met-β2m (cattle (Holstein) | bovine) (UniProt P01888); assay: scintillation proximity assay

Substance: Ta9 epitope […] (peptide)
- Kd [1]: 74 nM
- Kd [2]: 309 nM

Substance: Tp2 49–59 epitope […] (peptide)
- EC50 [3]: 364 nM
- half-life of the pBoLA-I complex [4]: 2 h

Substance: Tp2 96–104 epitope […] (peptide)
- EC50 [5]: 144 nM
- EC50 [2]: 767 nM
- half-life of the pBoLA-I complex [6]: 4 h

Substance: Tp2 98–106 epitope […] (peptide)
- half-life of the pBoLA-I complex [4]: 3 h

Substance: Tp4 328–336 epitope … (peptide)
- half-life of the pBoLA-I complex [7]: 23 h
- half-life of the pBoLA-I complex [6]: 2 h

Substance: Tp5 87–95 epitope … (peptide)
- half-life of the pBoLA-I complex [8]: 18 h

Substance: Tp8 379–387 epitope […] (peptide)
- half-life of the pBoLA-I complex [7]: 14 h
- half-life of the pBoLA-I complex [6]: 2 h

Substance: Tp9 199–228 epitope […] (peptide)
- half-life of the pBoLA-I complex [8]: 4 h
